{"source": "patent US20090291088A1", "about": "(Biogen, published 2009)", "key": {"[1]": {"biological_target": "T1, human IGF-1R expressed on cells (human, UniProt P08069 31-1367)", "T1 construct": "On MCF-7 tumor cells or on 3T3/CHO transfectants; precursor is processed into alpha and beta subunits; Signal peptide 1-30 left out as stated; also called wild type IGF-1R; IGF-1R 3T3", "assay": "flow cytometry, MCF-7 cells", "method": "The ability of Fabs to bind to the wild type IGF-1R was determined by flowcytometry using MCF-7 tumor cell line.\nMCF-7 cells (Human Breast Adenocarcinoma from NCI) were split 24 hours prior to the setup of the assay to obtain 70% confluent monolayer. Routinely, MCF-7 cell line was maintained within 20 passages. Cells were lifted with cell dissociation buffer (Gibco catalog #13151-014), counted, washed and adjusted to 1×10⁶ cells/ml and one ml of cells were then added to each tube (12×75 mm tube Falcon catalog# 352054). Cells were pelleted and supernatant removed by centrifugation at 1200 rpm for 5 min and 100 μl of diluted antibodies were then added to the cell pellet. Purified Fabs were tested at a starting concentration of either 210 or 60 μg/ml with 1:3 dilutions in FACS buffer, down to 0.001 μg/ml. FACS buffer used throughout the assay was PBS (without Ca++/Mg++) containing 1% BSA (Sigma catalog# A-7906; Sigma-Aldrich Corp. (St. Louis, Mo., USA)) and 0.1% Sodium Azide (Sigma catalog #S2002). […] Samples were allowed to incubate on ice for 1 hour and 15 minutes then were washed with 2 ml FACS buffer and centrifuged at 1200 rpm for 5 minutes at 4° C. The supernatant was aspirated and 100 μl of the secondary detection antibody was added to each corresponding tube in FACS buffer. Samples were then incubated for 30 minutes on ice, in the dark. Cells were washed as described above, then, re-suspended in […] FACS buffer per tube/sample.\nCells were stained for live cell determination with Propidium Iodide staining solution (PI for dead cell exclusion; BD Pharmingen catalog# 51-66211E or 556463; use at 1:500 final in FACS buffer). Samples were run on the FACSCalibur instrument (Becton Dickinson) with 10,000 live events collected per sample."}, "[2]": {"biological_target": "T2, human IGF-1R(1-902)-His10 (human, UniProt P08069 31-932)", "T2 construct": "Cy5-labelled in tr-FRET; also called hIGF-1R-His10; IGF-1R-His", "assay": "SPR, Fab over captured IGF-1R-10His", "method": "All surface plasmon resonance (SPR) experiments were performed on a Biacore 3000 set to 25° C. using HBS-EP (Biacore, Cat. No. BR-1001-88) as the running buffer. A biotin-labeled anti-HisTag antibody (biotin-PENTA-His, Qiagen Cat. No. 34440) was immobilized to saturation on a Biacore SA chip (Cat. No. BR-1000-32) surface by injection at 500 nM in HBS-EP buffer. […] Subsequent to IGF-1R injections, flow rates were increased to 20 μL/min. A second, 130 μL injection of anti-IGF-1R antibody or Fab was performed to investigate interactions with the receptor. Each antibody and Fab was serially diluted from 64 nM to 0.5 nM to obtain concentration dependent kinetic binding curves. Each injection series was regenerated using 3×10 μL injections of 10 mM Acetate, pH 4.0, at 20 μL/min. Each curve was double referenced using (1) data obtained from a streptavidin surface devoid of IGF-1R and (2) data from a primary injection of IGF-1R followed by a secondary injection of HBS-EP buffer. The concentration series for each antibody and Fab was fit to the 1:1 binding model provided within the BiaEvaluation software of the manufacturer.\nTo obtain discrete affinities, Fab fragments of each antibody were generated using papain digestion as described above."}, "[3]": {"biological_target": "T3, hIGF-1R-Fc mutant SD109 (Y482A, R483W) (human, UniProt P08069 31-933)", "T3 construct": "not shown: C-terminal human IgG1-Fc tag", "assay": "SPR, Fab over captured mutant"}, "[4]": {"biological_target": "T4, hIGF-1R-Fc mutant SD110 (E533H) (human, UniProt P08069 31-933)", "T4 construct": "not shown: C-terminal human IgG1-Fc tag", "assay": "SPR, Fab over captured mutant"}, "[5]": {"biological_target": "T5, hIGF-1R-Fc mutant SD104 (H464A) (human, UniProt P08069 31-933)", "T5 construct": "not shown: C-terminal human IgG1-Fc tag", "assay": "SPR, Fab over captured mutant"}, "[6]": {"biological_target": "T6, hIGF-1R-Fc mutant SD113 (E570A, I571T) (human, UniProt P08069 31-933)", "T6 construct": "not shown: C-terminal human IgG1-Fc tag", "assay": "SPR, Fab over captured mutant"}, "[7]": {"biological_target": "T7, hIGF-1R-Fc mutant SD108 (H480E) (human, UniProt P08069 31-933)", "T7 construct": "not shown: C-terminal human IgG1-Fc tag", "assay": "SPR, Fab over captured mutant"}, "[8]": {"biological_target": "T8, hIGF-1R-Fc mutant SD102 (E459A, S460A) (human, UniProt P08069 31-933)", "T8 construct": "not shown: C-terminal human IgG1-Fc tag", "assay": "SPR, Fab over captured mutant"}, "[9]": {"biological_target": "T9, hIGF-1R-Fc mutant SD015 (H464E) (human, UniProt P08069 31-933)", "T9 construct": "not shown: C-terminal human IgG1-Fc tag", "assay": "SPR, Fab over captured mutant"}, "[10]": {"biological_target": "T10, hIGF-1R-Fc mutant SD103 (D461A, V462T) (human, UniProt P08069 31-933)", "T10 construct": "not shown: C-terminal human IgG1-Fc tag", "assay": "SPR, Fab over captured mutant"}}}
{"binder": "M14-C03 Fab (Fab, V domains shown, Human phage Fab, kappa) VH: EVQLLESGGGLVQPGGSLRLSCAASGFTFSKYMMSWVRQAPGKGLEWVSYISPSGGLTWYADSVKGRFTISRDNSKNTLYLQMNSLRAEDTAVYYCARDGARGYGMDVWGQGTTVTVSS VL: DIQMTQSPATLSLSPGERATLSCRASQSVSSYLAWYQQKPGQAPRLLIYDASNRATGIPARFSGSGSGTDFTLTISSLEPEDFAVYYCQQRSNWPPEVTFGPGTKVDIK", "values": [{"measurement": "EC50", "setting": "[1]", "result": 25.4, "unit": "nM"}, {"measurement": "Kd", "setting": "[2]", "result": 4.9, "unit": "nM"}, {"measurement": "koff", "setting": "[2]", "result": 0.00094, "unit": "s⁻¹"}, {"measurement": "kon", "setting": "[2]", "result": 190000, "unit": "M⁻¹ s⁻¹"}, {"measurement": "binding result", "setting": "[3]", "result": "no binding (tested: 30 nM)"}, {"measurement": "binding result", "setting": "[4]", "result": "no binding (tested: 30 nM)"}, {"measurement": "binding result", "setting": "[5]", "result": "no binding (tested: 30 nM)"}, {"measurement": "binding result", "setting": "[6]", "result": "no binding (tested: 30 nM)"}, {"measurement": "binding result", "setting": "[7]", "result": "no binding (tested: 30 nM)"}, {"measurement": "binding result", "setting": "[8]", "result": "no binding (tested: 30 nM)"}, {"measurement": "binding result", "setting": "[9]", "result": "no binding (tested: 30 nM)"}, {"measurement": "binding result", "setting": "[10]", "result": "no binding (tested: 30 nM)"}]}
